Consider 3 molecules from PMC8907193 (2022).

Usually Kd stands for the free concentration of one partner at which half of the binding sites on the other are occupied at equilibrium, for simple one-to-one binding. The koff is the first-order rate constant of dissociation. Read a low koff as a long-lived complex.

Experiment [1] has as its target T1, biotinylated human 20S proteasome (human, UniProt P60900 1-246; P25787 1-234; P25789 1-261; O14818 1-248; P28066 1-241; P25786 …). Kind of experiment: BLI. (BLI is a label-free optical method that tracks binding on a fibre tip over time.)
Experiment [2] has as its target T1, biotinylated human 20S proteasome. Description: BLI. The source holds these as a separate data set.

B1: PA26^YF (other)
chain: PPKRAALIQNLRDSYTETSSFAVIEEWAAGTLQEIEGIAKAAAEAHGVIRNSTYGRAQAEKSPEQLLGVLQRYQDLCHNVYCQAETIRTVIAIRIPEHKEADNLGVAVQHAVLKIIDELEIKTLGSGEKSGSGGAPTPIGMYALREYLSARSTVEDKLLGSVDAESGKTKGGSQSPSLLLELRQIDADFMLKVELATTHLSTMVRAVINAYLLNWKKLIQPRTGNLSYFT
B1 came in with a Kd in experiment [1] of 0.22 nM. In experiment [2], this molecule yielded a koff of 0.00026 s⁻¹.

B2: PA26^E102A-Opt5 (other)
chain: PPKRAALIQNLRDSYTETSSFAVIEEWAAGTLQEIEGIAKAAAEAHGVIRNSTYGRAQAEKSPEQLLGVLQRYQDLCHNVYCQAETIRTVIAIRIPEHKEADNLGVAVQHAVLKIIDELEIKTLGSGEKSGSGGAPTPIGMYALREYLSARSTVEDKLLGSVDAESGKTKGGSQSPSLLLELRQIDADFMLKVELATTHLSTMVRAVINAYLLNWKKLIQPRTGNLSYYT
Take B2: in experiment [2], the koff was 0.00016 s⁻¹.

B3: wild-type PA26 (T. brucei) (natural protein)
chain: PPKRAALIQNLRDSYTETSSFAVIEEWAAGTLQEIEGIAKAAAEAHGVIRNSTYGRAQAEKSPEQLLGVLQRYQDLCHNVYCQAETIRTVIAIRIPEHKEEDNLGVAVQHAVLKIIDELEIKTLGSGEKSGSGGAPTPIGMYALREYLSARSTVEDKLLGSVDAESGKTKGGSQSPSLLLELRQIDADFMLKVELATTHLSTMVRAVINAYLLNWKKLIQPRTGSDHMVS
Consider B3, for which the equilibrium dissociation constant (Kd) in experiment [1] stood at 0.1 nM. The molecule further yielded a koff in experiment [2] of 0.00029 s⁻¹.
